# Patent US20150139990A1 (DAINIPPON SUMITOMO PHARMA, published 2015)
# Changes are numbered by the printed parent chain. Names and notes keep the numbering of the source.
# T1: human CD81 mutant V169A (human, UniProt P60033 1-236, limits assumed)
# T1 construct: as m30; not shown: C-terminal V5 and 6xHis tags
# T1 sequence: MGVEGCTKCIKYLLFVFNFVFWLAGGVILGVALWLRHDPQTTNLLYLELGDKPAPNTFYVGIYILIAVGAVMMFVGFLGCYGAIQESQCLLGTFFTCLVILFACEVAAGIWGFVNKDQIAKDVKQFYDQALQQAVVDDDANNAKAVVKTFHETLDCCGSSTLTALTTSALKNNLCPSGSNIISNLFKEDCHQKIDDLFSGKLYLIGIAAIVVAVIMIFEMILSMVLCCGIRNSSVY
# T2: human CD81 mutant I194A (human, UniProt P60033 1-236, limits assumed)
# T2 construct: as m30; not shown: C-terminal V5 and 6xHis tags
# T2 sequence: T1 sequence with A169V, I194A
# T3: human CD81 mutant V135A (human, UniProt P60033 1-236, limits assumed)
# T3 construct: as m30; not shown: C-terminal V5 and 6xHis tags
# T3 sequence: T1 sequence with V135A, A169V
# T4: human CD81 mutant S168A (human, UniProt P60033 1-236, limits assumed)
# T4 construct: as m30; not shown: C-terminal V5 and 6xHis tags
# T4 sequence: T1 sequence with S168A, A169V
# T5: human CD81 mutant L165A (human, UniProt P60033 1-236, limits assumed)
# T5 construct: as m30; not shown: C-terminal V5 and 6xHis tags
# T5 sequence: T1 sequence with L165A, A169V
# T6: human CD81 mutant A164T (human, UniProt P60033 1-236, limits assumed)
# T6 construct: as m30; not shown: C-terminal V5 and 6xHis tags
# T6 sequence: T1 sequence with A164T, A169V
# T7: human CD81 on CD81-expressing cells (Jurkat E6.1, human PBMC, Ramos) (human, UniProt P60033 1-236)
# T7 sequence: T1 sequence with A169V
# T8: human CD81 mutant A164V (human, UniProt P60033 1-236, limits assumed)
# T8 construct: as m30; not shown: C-terminal V5 and 6xHis tags
# T8 sequence: T1 sequence with A164V, A169V
# T9: human CD81 mutant V169L (human, UniProt P60033 1-236, limits assumed)
# T9 construct: as m30; not shown: C-terminal V5 and 6xHis tags
# T9 sequence: T1 sequence with A169L
# T10: human CD81 mutant S168T (human, UniProt P60033 1-236, limits assumed)
# T10 construct: as m30; not shown: C-terminal V5 and 6xHis tags
# T10 sequence: T1 sequence with S168T, A169V
# B1: 002-F05 (antibody, human IgG4 S228P, lambda, V domains shown)
# VH: EVQLLESGGGLVQPGGSLRLSCAASGFTFSSNYMSWVRQAPGKGLEWVSYISSSSTYTDYADSVKGRFTISRDNSKNTLYLQMNSLRAEDTAVYYCARYSYGRDDFDYWGQGTLVTVSS
# VL: QSVLTQPASASGTPGQRVTISCTGSTSNIGAGYDTHWYQQLPGTAPKLLIYGNSNRPSGVPDRFSGSKSGTSASLAISGLRSEDEADYYCQSYDTNLNVWVFGGGTKLTVLG
# notes: IgG4 S228P
# B2: scFv-002-A07 (scFv)
# scFv: EVQLLESGGGLVQPGGSLRLSCAASGFTFSSNYMSWVRQAPGKGLEWVSYISSSSTYTDYADSVKGRFTISRDNSKNTLYLQMNSLRAEDTAVYYCARYSYGRDNFDYWGQGTLVTVSSGGGGSGGGGSGGGGSQSVLTQPPSASGTPGQRVTISCTGSTSNIGAGYDTHWYQQLPGTAPKLLIYGNSNRPSGVPDRFSGSKSGTSASLAISGLRSEDEADYYCQSYDTNLSVWVFGGGTKLTVLGEQKLISEEDLSGSAAAHHHHHH
# notes: antibody fragment from the n-CoDeR library, expressed in E. coli
# What was measured:
# human CD81 mutant V169A = target: T1, human CD81 mutant V169A; assay: ELISA
# human CD81 mutant I194A = target: T2, human CD81 mutant I194A; assay: ELISA
# human CD81 mutant V135A = target: T3, human CD81 mutant V135A; assay: ELISA
# human CD81 mutant S168A = target: T4, human CD81 mutant S168A; assay: ELISA
# human CD81 mutant L165A = target: T5, human CD81 mutant L165A; assay: ELISA
# human CD81 mutant A164T = target: T6, human CD81 mutant A164T; assay: ELISA
# [1] = target: T7, human CD81 on CD81-expressing cells …; assay: cell-based or functional assay
# human CD81 mutant A164V = target: T8, human CD81 mutant A164V; assay: ELISA
# human CD81 mutant V169L = target: T9, human CD81 mutant V169L; assay: ELISA
# human CD81 mutant S168T = target: T10, human CD81 mutant S168T; assay: ELISA
# [2] = target: T7, human CD81 on CD81-expressing cells …; assay: FMAT on CD81-expressing and non-expressing cells
# Source text: A complete human antibody library n-CoDeR (Nature Biotechnol. 18: 852-856, 2000; WO98/32845) was screened for specific binding with human CD81, using human CD81 protein and human CD9 protein having a homology with CD81, or human CD81-expressing and -non-expressing cells to obtain human antibody fragments (scFv) specifically binding with human CD81. First, phages bound to biotinylated CD81 protein in the presence of competitive CD9 protein were recovered using streptoavidin-labeled magnetic beads. Unbound phages were washed out and the bound phages were eluted by trypsin treatment. Panning was carried out three times, and the selected phage library was expressed as an antibody fragment in E. coli. […] FMAT is performed by adding antibody fragments to the cells immobilized on the wells of 384-well culture plate, and detecting its binding using a fluorescent-labeled anti-scFv antibody. As a result of the screening, two human CD81-specific human antibody fragments were selected. The nucleotide sequences (scFv-002-A07: SEQ ID NO:33, scFv-005-001: SEQ ID NO:35) and the deduced amino acid sequences (scFv-002-A07: SEQ ID NO:34, scFv-005-001: SEQ ID NO:36) of these fragments were determined by sequencing.
Binder,relative binding affinity (human CD81 mutant V169A) [%],relative binding affinity (human CD81 mutant I194A) [%],relative binding affinity (human CD81 mutant V135A) [%],relative binding affinity (human CD81 mutant S168A) [%],relative binding affinity (human CD81 mutant L165A) [%],relative binding affinity (human CD81 mutant A164T) [%],Jurkat chemotaxis (% of control IgG4) at 0.001 µg/mL [1] [%],Jurkat chemotaxis (% of control IgG4) at 0.01 µg/mL [1] [%],Jurkat chemotaxis (% of control IgG4) at 0.1 µg/mL [1] [%],Jurkat chemotaxis (% of control IgG4) at 1 µg/mL [1] [%],Jurkat chemotaxis (% of control IgG4) at 10 µg/mL [1] [%],relative binding affinity (human CD81 mutant A164V) [%],relative binding affinity (human CD81 mutant V169L) [%],relative binding affinity (human CD81 mutant S168T) [%],binding result [2]
B1,< 20,< 20,< 20,< 20,< 20,< 20,102,79,27,5,7,< 20,< 20,< 20,–
B2,–,–,–,–,–,–,–,–,–,–,–,–,–,–,binds
